# Experimental data from EP4640709A1.
# Experiments:
# human CX3CR1 (human) [1] = biological target: human CX3CR1 (human) (UniProt P49238); test: flow cytometry, chimeric CX3CR1-expressing Ba/F3 cells, 200 nM, grade vs positive antibody (+++ >70%, ++ 40-70%, + 10-40%, - <10%)
# mouse CX3CR1 (mouse) [2] = biological target: mouse CX3CR1 (mouse) (UniProt Q9Z0D9); test: flow cytometry, chimeric CX3CR1-expressing Ba/F3 cells
# [3] = biological target: cynomolgus monkey CX3CR1 (cynomolgus monkey); test: flow cytometry, CX3CR1-expressing Ba/F3 cells
# human CX3CR1 (human) [4] = biological target: human CX3CR1 (human) (UniProt P49238); test: flow cytometry, CX3CR1-expressing Ba/F3 cells
# rat CX3CR1 (rat) = rat CX3CR1 (rat) (UniProt P35411); test: flow cytometry, CX3CR1-expressing Ba/F3 cells, 200 nM, grade vs positive antibody (+++ >70%, ++ 40-70%, + 10-40%, - <10%); this antibody is itself the 100% reference
# rat CX3CR1 (rat), sequence (P35411 whole entry): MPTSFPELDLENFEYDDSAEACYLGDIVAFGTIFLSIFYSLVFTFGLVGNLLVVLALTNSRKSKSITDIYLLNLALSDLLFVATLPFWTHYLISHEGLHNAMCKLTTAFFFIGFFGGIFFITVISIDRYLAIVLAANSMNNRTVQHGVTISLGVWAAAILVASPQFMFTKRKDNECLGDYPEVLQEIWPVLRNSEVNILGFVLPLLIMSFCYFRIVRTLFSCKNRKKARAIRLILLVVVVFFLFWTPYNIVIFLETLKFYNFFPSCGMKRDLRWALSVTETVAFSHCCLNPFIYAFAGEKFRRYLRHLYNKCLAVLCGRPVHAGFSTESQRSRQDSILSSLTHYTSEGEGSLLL
# mouse CX3CR1 (mouse) [5] = biological target: mouse CX3CR1 (mouse) (UniProt Q9Z0D9); test: as above
# mouse CX3CR1 (mouse) [6] = biological target: mouse CX3CR1 (mouse) (UniProt Q9Z0D9); test: flow cytometry, chimeric CX3CR1-expressing Ba/F3 cells, 200 nM, grade vs positive antibody (+++ >70%, ++ 40-70%, + 10-40%, - <10%)
# human CX3CR1 (human) [7] = biological target: human CX3CR1 (human) (UniProt P49238); test: flow cytometry, chimeric CX3CR1-expressing Ba/F3 cells
# mouse CX3CR1 (mouse), sequence (Q9Z0D9 whole entry): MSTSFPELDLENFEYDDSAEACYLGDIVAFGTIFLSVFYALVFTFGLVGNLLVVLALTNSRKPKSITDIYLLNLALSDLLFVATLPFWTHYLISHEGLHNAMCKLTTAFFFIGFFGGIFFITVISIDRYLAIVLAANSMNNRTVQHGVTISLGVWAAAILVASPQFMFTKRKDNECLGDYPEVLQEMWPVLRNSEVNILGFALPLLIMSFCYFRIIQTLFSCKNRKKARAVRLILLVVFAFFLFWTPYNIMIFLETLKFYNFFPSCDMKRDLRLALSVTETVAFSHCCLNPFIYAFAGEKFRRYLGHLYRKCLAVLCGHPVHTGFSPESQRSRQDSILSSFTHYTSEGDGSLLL
# human CX3CR1 (human), sequence (P49238 whole entry): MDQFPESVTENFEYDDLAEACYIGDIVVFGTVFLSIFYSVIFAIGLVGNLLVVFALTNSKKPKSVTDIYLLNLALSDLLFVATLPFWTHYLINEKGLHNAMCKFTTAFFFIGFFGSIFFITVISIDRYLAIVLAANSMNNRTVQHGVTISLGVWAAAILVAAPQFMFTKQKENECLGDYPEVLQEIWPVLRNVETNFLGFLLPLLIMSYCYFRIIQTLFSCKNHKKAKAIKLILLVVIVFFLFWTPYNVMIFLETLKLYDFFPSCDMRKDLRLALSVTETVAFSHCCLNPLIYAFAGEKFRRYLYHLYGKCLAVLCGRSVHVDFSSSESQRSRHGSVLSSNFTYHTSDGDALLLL
"relative value (% reactivity, MFI) compared to positive antibody at 200 nM (human CX3CR1 (human) [1]) [%]","relative value (% reactivity, MFI) compared to positive antibody at 200 nM (mouse CX3CR1 (mouse) [2]) [%]","relative value (% reactivity, MFI) compared to positive antibody at 200 nM [3] [%]","relative value (% reactivity, MFI) compared to positive antibody at 200 nM (human CX3CR1 (human) [4]) [%]","relative value (% reactivity, MFI) compared to positive antibody at 200 nM (rat CX3CR1 (rat)) [%]","relative value (% reactivity, MFI) compared to positive antibody at 200 nM (mouse CX3CR1 (mouse) [5]) [%]","relative value (% reactivity, MFI) compared to positive antibody at 200 nM (mouse CX3CR1 (mouse) [6]) [%]","relative value (% reactivity, MFI) compared to positive antibody at 200 nM (human CX3CR1 (human) [7]) [%]",Substance
40 to 70,< 10,,,,,,,anti-hCX3CR1 antibody K0124E1 (Biolegend)
,,< 10,< 10,> 70,> 70,> 70,< 10,anti-mouse CX3CR1 antibody SA011F11 (Biolegend)
